The assay has as its target T1, SARS-CoV-2 WHU01 Spike RBD, monomeric (SARS-CoV-2, UniProt P0DTC2).
T1 construct: not shown: Fc (human IgG1), C-terminal, cleaved
In words: SPR. To be noted: both partners purified.

B1: Dog ACE2-huFc (soluble dog ACE2 ectodomain, human IgG1 Fc fusion) (Fc fusion)
chain: QSTEDLVKTFLEKFNYEAEELSYQSSLASWNYNINITDENVQKMNNAGAKWSAFYEEQSKLAKTYPLEEIQDSTVKRQLRALQHSGSSVLSADKNQRLNTILNSMSTIYSTGKACNPSNPQECLLLEPGLDDIMENSKDYNERLWAWEGWRSEVGKQLRPLYEEYVALKNEMARANNYEDYGDYWRGDYEEEWENGYNYSRNQLIDDVEHTFTQIMPLYQHLHAYVRTKLMDTYPSYISPTGCLPAHLLGDMWGRFWTNLYPLTVPFGQKPNIDVTNAMVNQSWDARKIFKEAEKFFVSVGLPNMTQEFWENSMLTEPSDSRKVVCHPTAWDLGKGDFRIKMCTKVTMDDFLTAHHEMGHIQYDMAYAAQPFLLRNGANEGFHEAVGEIMSLSAATPNHLKNIGLLPPSFFEDSETEINFLLKQALTIVGTLPFTYMLEKWRWMVFKGEIPKDQWMKTWWEMKRNIVGVVEPVPHDETYCDPASLFHVANDYSFIRYYTRTIYQFQFQEALCQIAKHEGPLHKCDISNSSEAGQKLLEMLKLGKSKPWTYALEIVVGAKNMDVRPLLNYFEPLFTWLKEQNRNSFVGWNTDWSPYADQSIKVRISLKSALGEKAYEWNNNEMYLFRSSIAYAMRQYFSEVKNQTIPFVEDNVWVSDLKPRISFNFFVTSPGNVSDIIPRTEVEEAIRMYRSRINDVFRLDDNSLEFLGIQPTLGPPYEPPVTI
notes: source: 293F cells, transfected, purified from supernatant (Protein A Sepharose)
For B1, the affinity, expressed as Kd, was 275 nM; the koff (commonly a measure of how fast the partners let go of each other) amounted to 0.0176 s⁻¹; the kon (commonly a measure of how fast the partners come together) came out at 60000 M⁻¹ s⁻¹.

Values taken from paper PMC10715038 (Microbiology Spectrum, 2023).
